{
  "source": "patent US20210180049A1",
  "about": "(CHUGAI SEIYAKU KABUSHIKI KAISHA, priority 2013, published 2021)",
  "molecules": {"B1": {"name": "6RNMSC1-2_F02: antibody binding hIL-6R in the presence of kynurenine; heavy chain SEQ ID NO: 32, light chain SEQ ID NO: 33 (antibody, listed as Homo sapiens, V domains shown)", "VH": "QVQLVQSGAEVKKPGSSVKVSCKASGGTFSSYAISWVRQAPGQGLEWMGGIIPIFGTANYAQKFQGRVTITADESTSTAYMELSSLRSEDTAVYYCARDAPVVARPRGAFDIWGQGTMVTVSS", "VL": "DIVMTQTPLSSPVTLGQPASISCRSSQSLVHSDGNTYLSWLQQRPGQPPRLLIHEISNRFSGVPDRFSGSGAGTNFTLKISRVEAEDVGVYYCMQATQFPRTFGQGTKVEIK"}},
  "key": {"[1]": {"test": "Tm measurement by DSC", "method": "Measurement by DSC was carried out by a method known to those skilled in the art.\nDSC measurement was carried out by a method known to those skilled in the art."}, "[2]": {"target": "T1, human IL-6 receptor (hIL-6R) (Homo sapiens, UniProt P08887)", "T1 sequence (P08887 20-357)": "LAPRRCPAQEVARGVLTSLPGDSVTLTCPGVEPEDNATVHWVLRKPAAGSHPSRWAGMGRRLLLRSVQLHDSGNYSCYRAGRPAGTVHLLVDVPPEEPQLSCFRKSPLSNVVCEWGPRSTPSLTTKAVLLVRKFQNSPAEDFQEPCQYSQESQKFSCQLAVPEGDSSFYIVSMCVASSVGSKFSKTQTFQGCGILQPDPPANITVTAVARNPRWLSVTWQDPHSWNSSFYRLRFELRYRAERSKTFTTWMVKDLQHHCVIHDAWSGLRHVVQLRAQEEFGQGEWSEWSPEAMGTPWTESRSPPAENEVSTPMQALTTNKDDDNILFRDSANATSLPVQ", "test": "SPR dissociation of antibody from immobilized hIL-6R with or without kynurenine", "format": "binding", "conditions": "bound in 100 μmol/L kynurenine, then buffer without kynurenine", "procedure": "The running buffers used were 20 mmol/L ACES, 150 mmol/L NaCl, 0.05% (w/v) Tween 20, pH 7.4, and 20 mmol/L ACES, 150 mmol/L NaCl, 0.05% (w/v) Tween 20, pH 7.4, 100 μmol/L kynurenine. The measurements were performed at 25° C. As an analyte, 5 μg/mL 6RNMSC1-2_F02 diluted with 20 mmol/L ACES, 150 mmol/L NaCl, 0.05% (w/v) Tween 20, pH 7.4, containing 100 μmol/L kynurenine was allowed to interact for 180 seconds with hIL-6R immobilized onto Sensor chip CM5 by amine coupling. Then, the mode of the dissociation of hIL-6R was observed under each running buffer condition. […] Specifically, the regulation by kynurenine on binding of the antibody to hIL-6R was confirmed to be reversible."}, "[3]": {"target": "T1, human IL-6 receptor (hIL-6R)", "test": "SPR effect of kynurenine concentration on binding to immobilized hIL-6R", "conditions": "1 μg/mL antibody, 180 seconds", "procedure": "Next, the effect of kynurenine concentration on antigen-antibody reaction between 6RNMSC1-2_F02 and hIL-6R was assessed using Biacore T200 (GE Healthcare). The running buffer used was 20 mmol/L ACES, 150 mmol/L NaCl, 0.05% (w/v) Tween 20, pH 7.4. Antigen-antibody reaction between 6RNMSC1-2_F02 and human IL-6R was assayed at 25° C. hIL-6R was immobilized onto Sensor chip CM5 by amine coupling. As an analyte, 1 μg/mL 6RNMSC1-2_F02 diluted with 20 mmol/L ACES, 150 mmol/L NaCl, 0.05% (w/v) Tween 20, pH 7.4, containing kynurenine adjusted to various concentrations were allowed to interact for 180 seconds and changes in the amount of binding were observed."}, "[4]": {"test": "SPR (Biacore T200) binding of 6RNMSC1-2_F02 and variants to kynurenine", "procedure": "An appropriate amount of protein A (Invitrogen) was immobilized onto Sensor chip CM4 (GE Healthcare) by the amine coupling method. The antibody of interest was captured thereon, and the antigen kynurenine and derivatives thereof were allowed to interact. The running buffer used was 50 mmol/L Tris-HCl, 150 mmol/L NaCl, 0.02% (w/v) Tween 20, 5% DMSO, pH 7.6. All measurements were carried out at 15° C. The antigens were diluted with the running buffer.\nThen, the running buffer was run at a flow rate of 30 μL/min for 60 seconds to observe the dissociation of antigens from the antibody. Kinetic parameters, the association rate constant ka (1/Ms) and the dissociation rate constant kd (l/s), were calculated based on the sensorgrams obtained by the measurements. The dissociation constant KD (M) was calculated from these constants. Each parameter was calculated using Biacore T200 Evaluation Software (GE Healthcare).\n(§1) Meanwhile, the type of sensor chip immobilized with Protein A was changed to Sensor chip Series S CM3 (GE Healthcare) to measure some of the variants. When kynurenine dissociation was too fast to determine the dissociation rate constant, a dissociation constant KD (M) was calculated by analysis of equilibrium values based on the degree of binding response during the interaction with each antigen (association phase). In this case also, Biacore T200 Evaluation Software (GE Healthcare) was used to calculate the parameters.\nas §1\nWhen kynurenine dissociation was too fast to determine the dissociation rate constant, the dissociation constant KD (M) was calculated by analysis of equilibrium values based on the degree of binding response when it is interacted with each antigen (association phase). Also in this case, the Biacore T200 Evaluation Software (GE Healthcare) was used to calculate parameters. […] Each variant and its parental antibody F02h011/F021003 were compared in terms of the KD value for kynurenine.\nWhen kynurenine dissociation was too fast to determine the dissociation rate constant, the dissociation constant KD (M) was calculated by analyzing equilibrium values based on the degree of binding response when it is interacted with each antigen (association phase). Also in this case, the Biacore T200 Evaluation Software (GE Healthcare) was used to calculate parameters. […] Each variant and its parental sequence F02h011/F021003 were compared in terms of the KD value for kynurenine."}, "[5]": {"target": "T2, hIL-6R (Homo sapiens, UniProt P08887)", "T2 sequence (P08887 20-357)": "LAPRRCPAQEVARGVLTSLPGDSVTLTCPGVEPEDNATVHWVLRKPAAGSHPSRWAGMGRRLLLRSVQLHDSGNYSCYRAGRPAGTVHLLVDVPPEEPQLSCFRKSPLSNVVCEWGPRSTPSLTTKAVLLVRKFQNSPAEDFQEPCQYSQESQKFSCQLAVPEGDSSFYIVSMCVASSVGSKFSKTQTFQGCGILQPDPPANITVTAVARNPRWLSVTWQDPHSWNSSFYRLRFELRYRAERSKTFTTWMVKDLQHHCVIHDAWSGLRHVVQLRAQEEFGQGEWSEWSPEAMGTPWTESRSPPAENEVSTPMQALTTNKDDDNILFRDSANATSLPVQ", "format": "binding", "conditions": "Octet", "procedure": "Octet ([…]) was used to assess the effect of various small molecules on the antigen-antibody reaction between hIL-6R and the kynurenine-switch antibody 6RNMSC1-2_F02 obtained from a library. A total of eight molecules shown in Example (7-5), which are kynurenine and derivatives thereof, were evaluated as small molecules. The assay buffer used was TBS, pH 7.4, and measurements were carried out at 30° C. Biotinylated hIL-6R was immobilized onto a streptavidin sensor chip, the antibody was allowed to interact, and changes in the amount of its binding were observed. The antibody was diluted using the assay buffer or the assay buffer to which either one of the small molecules has been added. The final concentration of each small molecule was adjusted to 100 uM, while the final antibody concentration was adjusted to 10 μg/mL."}},
  "data": [
    {"molecule": "B1", "values": [
      {"measurement": "Tm", "setting": "[1]", "value": 82.9, "unit": "°C"},
      {"measurement": "dissociation from hIL-6R when kynurenine is no more present", "setting": "[2]", "value": "rapidly dissociating hIL-6R"},
      {"measurement": "effect of kynurenine concentration on the amount of binding to hIL-6R", "setting": "[3]", "value": "the higher the concentration of kynurenine acting as a switch, the greater the amount of 6RNMSC1-2_F02 binding to hIL-6R"},
      {"measurement": "kynurenine binding (in words)", "setting": "[4]; Biacore", "value": "confirmed once again to bind to kynurenine"},
      {"measurement": "Kd", "setting": "[4]; Biacore T200, 15° C., 5% DMSO", "value": 239, "unit": "µM"},
      {"measurement": "ka for kynurenine", "setting": "[4]; Biacore T200, 15° C., 5% DMSO", "value": 709, "unit": "M⁻¹ s⁻¹"},
      {"measurement": "kd for kynurenine", "setting": "[4]; Biacore T200, 15° C., 5% DMSO", "value": 0.17, "unit": "L/s"},
      {"measurement": "hIL-6R binding in the presence of 3-hydroxy-DL-kynurenine", "setting": "[5]; 100 uM small molecule", "value": "binding to hIL-6R was observed"},
      {"measurement": "hIL-6R binding in the presence of RO0635389-000-001", "setting": "[5]; 100 uM small molecule", "value": "binding to hIL-6R was observed"},
      {"measurement": "hIL-6R binding in the presence of RO0635390-000-001", "setting": "[5]; 100 uM small molecule", "value": "binding to hIL-6R was observed"},
      {"measurement": "hIL-6R binding in the absence of kynurenine", "setting": "[5]; 30° C., antibody 10 μg/mL", "value": "not observed"},
      {"measurement": "hIL-6R binding in the presence of 100 uM kynurenine", "setting": "[5]; 30° C., antibody 10 μg/mL", "value": "bound to hIL-6R"}
    ]}
  ]
}
